From doi:10.1101/2024.05.21.594841 (bioRxiv, 2024)

Experiments:
Test in all cases: split reporter
Scj1p = molecular target: T1, Scj1p (S. cerevisiae, UniProt P25303 22-377)
T1 sequence: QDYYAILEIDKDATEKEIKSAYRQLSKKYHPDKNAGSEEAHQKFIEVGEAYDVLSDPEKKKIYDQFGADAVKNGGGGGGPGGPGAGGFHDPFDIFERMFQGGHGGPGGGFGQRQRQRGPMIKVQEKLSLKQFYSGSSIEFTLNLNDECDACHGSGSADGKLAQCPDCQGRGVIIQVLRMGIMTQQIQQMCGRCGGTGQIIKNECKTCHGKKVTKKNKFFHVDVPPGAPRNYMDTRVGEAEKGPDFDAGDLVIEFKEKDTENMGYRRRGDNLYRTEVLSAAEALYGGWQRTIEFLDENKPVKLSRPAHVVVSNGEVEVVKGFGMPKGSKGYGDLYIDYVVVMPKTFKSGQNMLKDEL

Kre5p = molecular target: T2, Kre5p (S. cerevisiae, UniProt P22023 18-1365)
T2 sequence: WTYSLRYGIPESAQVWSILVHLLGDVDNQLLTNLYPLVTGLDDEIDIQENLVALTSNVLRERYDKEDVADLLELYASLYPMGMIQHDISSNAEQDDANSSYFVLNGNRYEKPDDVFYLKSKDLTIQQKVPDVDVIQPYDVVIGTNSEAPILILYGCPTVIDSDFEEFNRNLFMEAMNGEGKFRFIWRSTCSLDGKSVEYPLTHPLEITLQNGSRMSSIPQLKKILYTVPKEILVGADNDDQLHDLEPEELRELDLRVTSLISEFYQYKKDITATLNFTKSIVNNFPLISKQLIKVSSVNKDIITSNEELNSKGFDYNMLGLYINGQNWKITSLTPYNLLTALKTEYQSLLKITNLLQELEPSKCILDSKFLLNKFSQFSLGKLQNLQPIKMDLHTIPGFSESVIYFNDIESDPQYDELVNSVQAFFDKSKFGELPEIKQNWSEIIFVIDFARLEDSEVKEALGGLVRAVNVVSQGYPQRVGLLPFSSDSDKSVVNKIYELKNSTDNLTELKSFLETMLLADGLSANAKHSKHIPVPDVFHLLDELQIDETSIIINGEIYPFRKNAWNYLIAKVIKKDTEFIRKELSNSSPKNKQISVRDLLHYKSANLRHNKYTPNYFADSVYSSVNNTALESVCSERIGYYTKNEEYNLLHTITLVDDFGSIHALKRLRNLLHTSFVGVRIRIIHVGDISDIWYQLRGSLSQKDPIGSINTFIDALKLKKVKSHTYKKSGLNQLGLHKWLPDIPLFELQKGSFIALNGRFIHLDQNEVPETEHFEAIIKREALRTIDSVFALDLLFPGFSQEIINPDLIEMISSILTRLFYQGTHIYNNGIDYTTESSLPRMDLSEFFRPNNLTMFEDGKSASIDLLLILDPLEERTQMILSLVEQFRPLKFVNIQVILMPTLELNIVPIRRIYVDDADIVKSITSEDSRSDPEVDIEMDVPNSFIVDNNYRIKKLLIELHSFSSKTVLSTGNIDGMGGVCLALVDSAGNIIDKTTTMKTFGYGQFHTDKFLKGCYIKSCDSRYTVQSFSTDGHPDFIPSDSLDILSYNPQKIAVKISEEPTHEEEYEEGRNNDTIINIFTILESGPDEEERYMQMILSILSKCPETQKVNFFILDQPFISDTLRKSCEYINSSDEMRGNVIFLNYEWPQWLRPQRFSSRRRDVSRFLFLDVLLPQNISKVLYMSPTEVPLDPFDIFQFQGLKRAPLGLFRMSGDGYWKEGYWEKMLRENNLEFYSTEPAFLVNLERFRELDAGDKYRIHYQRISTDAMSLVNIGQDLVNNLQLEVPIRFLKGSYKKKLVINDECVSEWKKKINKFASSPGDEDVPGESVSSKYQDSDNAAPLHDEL

Mpd2p = molecular target: T3, Mpd2p (S. cerevisiae, UniProt Q99316 23-277)
T3 sequence: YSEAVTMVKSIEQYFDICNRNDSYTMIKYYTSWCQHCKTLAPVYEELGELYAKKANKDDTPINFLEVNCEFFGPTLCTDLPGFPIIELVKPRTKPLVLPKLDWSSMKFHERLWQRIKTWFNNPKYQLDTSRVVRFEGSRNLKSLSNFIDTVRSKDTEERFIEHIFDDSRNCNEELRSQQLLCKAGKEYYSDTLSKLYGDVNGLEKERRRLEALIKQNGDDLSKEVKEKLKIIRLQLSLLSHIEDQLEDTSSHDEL

normalized interacting score (Scj1p): > 40% | normalized interacting score (Kre5p): > 40% | normalized interacting score (Mpd2p): > 40%
B1: Lhs1p (natural protein)
chain: AVLGVDYGQQNIKAIVVSPQAPLELVLTPEAKRKEISGLSIKRLPGYGKDDPNGIERIYGSAVGSLATRFPQNTLLHLKPLLGKSLEDETTVTLYSKQHPGLEMVSTNRSTIAFLVDNVEYPLEELVAMNVQEIANRANSLLKDRDARTEDFVNKMSFTIPDFFDQHQRKALLDASSITTGIEETYLVSEGMSVAVNFVLKQRQFPPGEQQHYIVYDMGSGSIKASMFSILQPEDTTQPVTIEFEGYGYNPHLGGAKFTMDIGSLIENKFLETHPAIRTDELHANPKALAKINQAAEKAKLILSANSEASINIESLINDIDFRTSITRQEFEEFIADSLLDIVKPINDAVTKQFGGYGTNLPEINGVILAGGSSRIPIVQDQLIKLVSEEKVLRNVNADESAVNGVVMRGIKLSNSFKTKPLNVVDRSVNTYSFKLSNESELYDVFTRGSAYPNKTSILTNTTDSIPNNFTIDLFENGKLFETITVNSGAIKNSYSSDKCSSGVAYNITFDLSSDRLFSIQEVNCICQSENDIGNSKQIKNKGSRLAFTSEDVEIKRLSPSERSRLHEHIKLLDKQDKERFQFQENLNVLESNLYDARNLLMDDEVMQNGPKSQVEELSEMVKVYLDWLEDASFDTDPEDIVSRIREIGILKKKIELYMDSAKEPLNSQQFKGMLEEGHKLLQAIETHKNTVEEFLSQFETEFADTIDNVREEFKKIKQPAYVSKALSTWEETLTSFKNSISEIEKFLAKNLFGEDLREHLFEIKLQFDMYRTKLEEKLRLIKSGDESRLNEIKKLHLRNFRLQKRKEEKLKRKLEQEKSRNNNETESTVINSADDKTTIVNDKTTESNPSSEEDILHDEL
